Measured values published in PMC11645210.

Target: Shaanxi2011 RBD (bat sarbecovirus Shaanxi2011)
Assay: SPR

VIR-7229 Fab fragment
Kd: 185 nM | koff: 0.00985 s⁻¹ | kon: 53500 M⁻¹ s⁻¹
